Results: the RNAGym collection of RNA variant scans (doi:10.7554/elife.90254)

B1: LINE1-full (parent)
chain: UACGUAGGUGGUUUUCCCCUGAUAGUGCUAAGGGGGCCUGGAAGUUUGGACUGGGCAGAGCUCAACACAGCGUGGCAAAGUGGCUGUGGCUAGACUGCCUCUCUGGAUUCCUCGUCACUCAGCAGGGCAUCUCUGAGAGAAAUGCC

Variants of: B1
Test: self-cleavage, relative activity (ratio to wild type); higher = more cleavage; in vitro, sequencing; the parent is a self-cleaving ribozyme
In the case of A24U U104A, the self-cleavage is reported as 0.65. Variant A24U U104C has a self-cleavage of 1.25. U26G A124G showed a self-cleavage of 0.69. U26C A42G gave a self-cleavage of 1.06. U26C G58U showed a self-cleavage of 0.04. With U26A C76A the self-cleavage was 1.51. Variant U26A U119G has a self-cleavage of 1.45. For U26A U119A, the self-cleavage was 0.78. Work on U26G U100C yielded a self-cleavage of 1.22. With U26A G126C the self-cleavage was 1.42. With G27A A140U the self-cleavage was 1.28. In the case of A24U U87C, the self-cleavage is reported as 0.3. With G27C U109C the self-cleavage was 0.92. Variant A24U U47A has a self-cleavage of 0.99. Work on G25A A69G yielded a self-cleavage of 0.41. Work on U26A A50C yielded a self-cleavage of 0.78. In the case of A24U A31U, the self-cleavage is reported as 1.09. G25U A59G gave a self-cleavage of 0.18. For U26C G144C, the self-cleavage was 1.68. In the case of A24U A121U, the self-cleavage is reported as 0.55. A24U U108C showed a self-cleavage of 1.33. A24U U108A gave a self-cleavage of 1.51. In the case of U26A A59G, the self-cleavage is reported as 0.06. Variant U26A A136U has a self-cleavage of 1.2. Variant A24U C37G has a self-cleavage of 0.82. Variant U26G A79G has a self-cleavage of 0.53. C28A A78G gave a self-cleavage of 0.61. Variant A24U G86U has a self-cleavage of 0.13. Variant G27U C84A has a self-cleavage of 0.1. Work on U26G G27A yielded a self-cleavage of 1.01. Work on G27A U46C yielded a self-cleavage of 0.7. Variant U26A A117G has a self-cleavage of 1.11. Work on U26A U115C yielded a self-cleavage of 1.29. In the case of U26C G54A, the self-cleavage is reported as 0.6. U26C A30G gave a self-cleavage of 1.05. U26A G74U showed a self-cleavage of 1.94. In the case of U26G C111U, the self-cleavage is reported as 0.63. Variant G25C U115A has a self-cleavage of 1.02. For U26A C110A, the self-cleavage was 0.95. U26C A140U gave a self-cleavage of 0.59. Work on U26C C38A yielded a self-cleavage of 1.28. G25A C38U showed a self-cleavage of 0.64. Work on U26G G125U yielded a self-cleavage of 1.59. For U26A A78U, the self-cleavage was 1.61. With U26A A78G the self-cleavage was 0.74. Work on U26A A121G yielded a self-cleavage of 1.46. Work on U26A A121U yielded a self-cleavage of 1.11. For U26G U104C, the self-cleavage was 0.81. In the case of C28A G32C, the self-cleavage is reported as 0.96. U26A A140G showed a self-cleavage of 1.02. Work on G27A G88A yielded a self-cleavage of 0.04. U26C U29A showed a self-cleavage of 1.35. Work on A24G U115C yielded a self-cleavage of 1.46. Work on G25A G54U yielded a self-cleavage of 0.45. In the case of G25A A65C, the self-cleavage is reported as 0.02. U26C U143A showed a self-cleavage of 1.44. Work on U26C U143C yielded a self-cleavage of 1.07. With U26A U100G the self-cleavage was 1.31. Variant U26A U100C has a self-cleavage of 1.07. Work on A24U U112C yielded a self-cleavage of 1.28. In the case of U26C U52C, the self-cleavage is reported as 0.98. U26C C37U gave a self-cleavage of 0.77. Variant U26A C133U has a self-cleavage of 1.01. G25U A30G showed a self-cleavage of 1.27. A24U C120U gave a self-cleavage of 0.79. In the case of G27A U112C, the self-cleavage is reported as 1.7. U26A A43U gave a self-cleavage of 0.89. With U26A A43G the self-cleavage was 0.97. With U26C G127A the self-cleavage was 1.37. In the case of G25U A78G, the self-cleavage is reported as 0.96. G25C U104A gave a self-cleavage of 1.91. Work on U26G U85C yielded a self-cleavage of 0.14. U26G G60C showed a self-cleavage of 0.07. U26A U96G gave a self-cleavage of 0.03. With U26G A138G the self-cleavage was 1.21. With A24U U91C the self-cleavage was 0.45. U26C U39C showed a self-cleavage of 0.9. With U26C G93A the self-cleavage was 0.03. For U26C G93C, the self-cleavage was 0.17. A24U U85C gave a self-cleavage of 0.15. A24U A30G showed a self-cleavage of 1.09. In the case of G25U U45G, the self-cleavage is reported as 0.93. G27A A69C gave a self-cleavage of 0.11. In the case of U26G U47C, the self-cleavage is reported as 1.16. Variant A24G U130C has a self-cleavage of 1.47. Variant G27A A136G has a self-cleavage of 0.93. G25A A79G showed a self-cleavage of 0.91. U26A U143A gave a self-cleavage of 2.23. U26A U143C gave a self-cleavage of 0.86. Variant G25A U62C has a self-cleavage of 0.11. With A24U A117G the self-cleavage was 0.54. For U26C U85A, the self-cleavage was 0.11. Variant U26C U85C has a self-cleavage of 0.27. Work on U26A U104A yielded a self-cleavage of 0.98. Work on U26A U45G yielded a self-cleavage of 0.6. For U26A A30G, the self-cleavage was 0.84. With U26G G55A the self-cleavage was 0.21. Work on C28A G54A yielded a self-cleavage of 0.57. In the case of U26A A77G, the self-cleavage is reported as 1.84. For A24U A138U, the self-cleavage was 1.93. With U26C A94G the self-cleavage was 0.39. U26C A94U gave a self-cleavage of 0.28. U26G C110U showed a self-cleavage of 1.75. With G27A U108C the self-cleavage was 1.15. U26C C95A showed a self-cleavage of 0.1. Variant U26C G34A has a self-cleavage of 1.03. U26C U91C gave a self-cleavage of 0.73. Variant G27A U73C has a self-cleavage of 0.93. In the case of G27A U73A, the self-cleavage is reported as 0.87. For G25U A42G, the self-cleavage was 1.04. Work on A24U C116A yielded a self-cleavage of 1.7. Variant U26C A92U has a self-cleavage of 0.81. G25C A69G gave a self-cleavage of 0.14. In the case of U26C C133U, the self-cleavage is reported as 0.98. For C28A U134C, the self-cleavage was 1.92. With G25A A77G the self-cleavage was 0.92. Variant U26A C90A has a self-cleavage of 0.04. For C28G U45C, the self-cleavage was 1.09. With U26C U62G the self-cleavage was 0.07. In the case of U26C U62A, the self-cleavage is reported as 0.02. For U26G, the self-cleavage was 0.99. Work on U26A yielded a self-cleavage of 0.94. Variant U26C has a self-cleavage of 1.24. G25A G105A showed a self-cleavage of 1.27. G27C U112G gave a self-cleavage of 1.11. U26C U130G showed a self-cleavage of 1.61. Work on U26C U119C yielded a self-cleavage of 1.77. A24U G35U showed a self-cleavage of 0.67. Work on A24U G35A yielded a self-cleavage of 0.8. With U26A G33U the self-cleavage was 0.62. In the case of U26A G33A, the self-cleavage is reported as 0.67. G27A G144A showed a self-cleavage of 1.08. Work on U26A U73G yielded a self-cleavage of 1.18. In the case of U26A U73A, the self-cleavage is reported as 1.24. For U26A U73C, the self-cleavage was 1.15. For U26C A117G, the self-cleavage was 1.51. Variant U26C A117U has a self-cleavage of 2.25. In the case of U26A U102A, the self-cleavage is reported as 1.01. For U26A U102G, the self-cleavage was 0.38. For G25C C98G, the self-cleavage was 0.25. Work on G27A U143C yielded a self-cleavage of 1.38. In the case of U26A G34U, the self-cleavage is reported as 0.83. Variant G27A A42U has a self-cleavage of 0.99. G27A A67G gave a self-cleavage of 0.45. In the case of C28A A94G, the self-cleavage is reported as 0. Variant G27A U134A has a self-cleavage of 0.87. Work on G27A U134C yielded a self-cleavage of 1.58. In the case of A24G U119C, the self-cleavage is reported as 0.83. U26C A107C showed a self-cleavage of 1.89. G27A U85C showed a self-cleavage of 0.13. U26C A129G gave a self-cleavage of 1.41. Variant C28A A117G has a self-cleavage of 0.74. Variant G25A U87C has a self-cleavage of 0.22. Variant U26A U39C has a self-cleavage of 0.73. G27A U102C gave a self-cleavage of 0.84. Variant U26A U52A has a self-cleavage of 0.81. In the case of A24U C123U, the self-cleavage is reported as 1.02. For A24U A67U, the self-cleavage was 0.1. Variant U26G A117U has a self-cleavage of 1.3. In the case of A24U A92G, the self-cleavage is reported as 0.08. For G25C C116U, the self-cleavage was 1.52. U26A G114A showed a self-cleavage of 0.67. Variant G25A U100C has a self-cleavage of 1.81. Work on U26A A141G yielded a self-cleavage of 1.11. In the case of U26A C66A, the self-cleavage is reported as 0.05. Work on U26A G82A yielded a self-cleavage of 1.18. U26C A69C showed a self-cleavage of 0.08.
